# Measured values from publication PMC2825244.
# Biological target: Chemokine receptor four (CXCR4) (human (endogenous in JJ)) (UniProt P61073)
# Chain of UniProt P61073 (P61073 whole entry): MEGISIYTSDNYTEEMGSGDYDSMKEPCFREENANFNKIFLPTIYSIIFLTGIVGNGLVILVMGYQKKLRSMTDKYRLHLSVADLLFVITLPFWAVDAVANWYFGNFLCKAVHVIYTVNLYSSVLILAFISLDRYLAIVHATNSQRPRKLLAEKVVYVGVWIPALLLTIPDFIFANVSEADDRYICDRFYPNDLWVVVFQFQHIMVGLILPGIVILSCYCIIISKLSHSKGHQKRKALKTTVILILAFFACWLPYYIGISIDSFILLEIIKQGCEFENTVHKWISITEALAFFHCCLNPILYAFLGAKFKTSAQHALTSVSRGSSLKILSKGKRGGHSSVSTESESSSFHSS
substance,measurement,value
human recombinant SDF-1 (stromal cell derived factor one) (from UniProt P48061 22-93) (ligand),"MMP1 mRNA (qRT-PCR, fold) in JJ cells in hypoxia with SDF1 10 ng/ml, against 9 fold by hypoxia alone; the SDF1 mediated increase was blocked by the CXCR4 inhibitor AMD3100 0.1 μM",23 fold
